Experimental findings from patent US20240310359A1 are described below.

This assay deals with SERCA1a, mouse (endogenous, differentiated skeletal muscle cells) (mouse) (UniProt Q8R429). Briefly: cell-based or functional assay.
Sequence of SERCA1a, mouse (endogenous, differentiated skeletal muscle cells) (mouse) (Q8R429 whole entry): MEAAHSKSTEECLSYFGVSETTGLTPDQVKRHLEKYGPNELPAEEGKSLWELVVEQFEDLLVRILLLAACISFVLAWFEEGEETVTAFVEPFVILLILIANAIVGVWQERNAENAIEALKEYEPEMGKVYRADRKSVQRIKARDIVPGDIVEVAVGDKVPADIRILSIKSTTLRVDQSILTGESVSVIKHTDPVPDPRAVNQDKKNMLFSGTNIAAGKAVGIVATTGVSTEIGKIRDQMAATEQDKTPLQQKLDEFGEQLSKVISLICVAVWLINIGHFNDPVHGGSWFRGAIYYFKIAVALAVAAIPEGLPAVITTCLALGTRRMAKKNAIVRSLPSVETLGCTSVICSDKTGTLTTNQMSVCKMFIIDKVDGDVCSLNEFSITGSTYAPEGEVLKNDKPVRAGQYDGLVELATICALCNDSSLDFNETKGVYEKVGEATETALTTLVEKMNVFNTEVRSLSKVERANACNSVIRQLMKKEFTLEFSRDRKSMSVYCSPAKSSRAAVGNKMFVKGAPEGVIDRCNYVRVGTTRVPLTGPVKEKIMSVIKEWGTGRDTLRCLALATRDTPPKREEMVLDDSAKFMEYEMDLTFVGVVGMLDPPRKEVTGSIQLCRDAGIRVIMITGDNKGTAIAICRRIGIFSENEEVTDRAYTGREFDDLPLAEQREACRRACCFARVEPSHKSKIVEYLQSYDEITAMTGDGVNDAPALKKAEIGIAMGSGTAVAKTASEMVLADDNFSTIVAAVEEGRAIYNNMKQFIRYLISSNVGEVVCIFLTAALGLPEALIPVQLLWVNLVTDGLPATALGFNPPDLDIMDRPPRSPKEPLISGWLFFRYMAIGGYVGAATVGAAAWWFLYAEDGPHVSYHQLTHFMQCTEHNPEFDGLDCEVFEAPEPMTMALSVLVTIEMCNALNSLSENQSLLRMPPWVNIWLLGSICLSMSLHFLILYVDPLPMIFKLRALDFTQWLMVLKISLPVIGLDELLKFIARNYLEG

Sequence of NHL-Del (mutant of TRIM32 without NHL repeats, expressed from pEGFP-N1 in mouse differentiated skeletal muscle cells) (Q13049 1-361, stated change not applied): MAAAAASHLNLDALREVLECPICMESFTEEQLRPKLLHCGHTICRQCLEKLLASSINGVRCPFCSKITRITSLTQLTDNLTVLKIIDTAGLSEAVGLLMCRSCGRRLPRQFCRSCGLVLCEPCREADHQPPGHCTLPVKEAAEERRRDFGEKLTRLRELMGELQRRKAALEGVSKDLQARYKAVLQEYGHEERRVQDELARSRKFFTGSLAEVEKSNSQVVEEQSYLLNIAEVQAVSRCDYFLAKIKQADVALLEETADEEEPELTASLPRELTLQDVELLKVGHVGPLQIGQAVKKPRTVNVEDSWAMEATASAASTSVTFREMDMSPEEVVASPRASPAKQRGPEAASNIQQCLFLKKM
Sequence of wild-type TRIM32 (expressed from pEGFP-N1 in mouse differentiated skeletal muscle cells) (from UniProt Q13049 1-653) (enzyme) (Q13049 whole entry): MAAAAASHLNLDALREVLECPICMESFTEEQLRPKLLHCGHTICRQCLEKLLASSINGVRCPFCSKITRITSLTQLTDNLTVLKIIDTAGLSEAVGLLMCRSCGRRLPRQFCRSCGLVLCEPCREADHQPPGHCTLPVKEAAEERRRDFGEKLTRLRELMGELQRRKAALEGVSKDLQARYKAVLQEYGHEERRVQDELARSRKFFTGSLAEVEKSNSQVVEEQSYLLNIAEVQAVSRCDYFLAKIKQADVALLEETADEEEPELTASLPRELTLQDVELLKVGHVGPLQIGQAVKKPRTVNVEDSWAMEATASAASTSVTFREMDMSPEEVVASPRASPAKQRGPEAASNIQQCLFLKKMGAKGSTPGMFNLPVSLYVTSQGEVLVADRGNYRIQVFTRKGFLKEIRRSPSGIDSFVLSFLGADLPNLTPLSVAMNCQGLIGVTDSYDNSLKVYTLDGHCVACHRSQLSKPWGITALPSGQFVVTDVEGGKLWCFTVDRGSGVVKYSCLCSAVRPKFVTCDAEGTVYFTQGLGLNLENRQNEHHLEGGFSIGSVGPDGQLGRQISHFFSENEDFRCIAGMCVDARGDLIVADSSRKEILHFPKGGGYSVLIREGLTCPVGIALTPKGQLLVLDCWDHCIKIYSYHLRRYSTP
Sequence of wild-type TRIM32 (expressed from pEGFP-N1 in mouse differentiated skeletal muscle cells) (from UniProt Q13049 1-653) (Q13049 whole entry): as above

As for “wild-type TRIM32 (expressed from pEGFP-N1 in mouse differentiated skeletal muscle cells) (from UniProt Q13049 1-653)”, the Caffeine response (normalized ratio to vector control) stood at 1.22.

As for “wild-type TRIM32 (expressed from pEGFP-N1 in mouse differentiated skeletal muscle cells) (from UniProt Q13049 1-653) (enzyme)”, the KCl response (normalized ratio to vector control) was 1.27 and the Releasable Ca^2+ level from SR (normalized ratio to vector control) was 1.48.

Consider “NHL-Del (mutant of TRIM32 without NHL repeats, expressed from pEGFP-N1 in mouse differentiated skeletal muscle cells) (from UniProt Q13049 1-361) (enzyme)”, for which the Caffeine response (normalized ratio to vector control) stood at 0.97, the KCl response (normalized ratio to vector control) is 0.94 and the Releasable Ca^2+ level from SR (normalized ratio to vector control) is 0.99.
